PMC8900817, “Highlighting the factors governing transglycosylation in the GH5_5 endo-1,4-β-glucanase RBcel1” (Acta Crystallographica. Section D, Structural Biology, 2022)

Assays:
RBcel1 [1] = target: T1, RBcel1 (uncultured bacterium, UniProt Z9EI17H729, E135Q); experiment: X-ray crystal structure, […] Å; format: binding; details: co-crystal with 1 mM G3, pH 7.4; subsites +1 to +3 (monomer A) and -4 to -2 (monomer B)
T1 construct: 321 residues
T1 sequence (Z9EI17H729 1-321 E135Q): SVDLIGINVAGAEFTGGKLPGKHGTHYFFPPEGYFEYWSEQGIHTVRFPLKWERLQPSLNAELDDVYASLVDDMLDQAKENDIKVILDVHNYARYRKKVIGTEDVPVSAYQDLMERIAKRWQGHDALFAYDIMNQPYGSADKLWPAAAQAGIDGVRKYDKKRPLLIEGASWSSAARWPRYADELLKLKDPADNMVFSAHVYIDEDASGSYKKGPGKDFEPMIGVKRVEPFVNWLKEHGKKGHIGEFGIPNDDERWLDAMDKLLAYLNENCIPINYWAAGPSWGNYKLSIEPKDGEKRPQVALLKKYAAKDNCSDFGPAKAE

RBcel1 [2] = target: T2, RBcel1 (uncultured bacterium, UniProt Z9EI17H729, Y201F); experiment: X-ray crystal structure, […] Å; details: co-crystal with 1 mM G3, pH 7; covalent to Glu245 (monomer D, occupancy 0.13); also +1 to +3 subsites (monomer C)
T2 sequence (Z9EI17H729 1-321 Y201F): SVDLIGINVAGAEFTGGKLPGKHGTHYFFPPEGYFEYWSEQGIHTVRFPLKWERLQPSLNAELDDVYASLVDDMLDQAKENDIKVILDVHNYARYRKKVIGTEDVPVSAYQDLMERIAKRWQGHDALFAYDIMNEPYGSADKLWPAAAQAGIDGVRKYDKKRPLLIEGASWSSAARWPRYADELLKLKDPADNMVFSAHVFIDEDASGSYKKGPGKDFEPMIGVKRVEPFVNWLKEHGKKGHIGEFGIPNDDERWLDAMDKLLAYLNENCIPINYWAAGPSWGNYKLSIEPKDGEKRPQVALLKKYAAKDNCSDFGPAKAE

purified protein [3] = substrate: O=[N+]([O-])c1ccc(O[C@@H]2O[C@H](CO)[C@@H](O[C@@H]3O[C@H](CO)[C@@H](O[C@@H]4O[C@H](CO)[C@@H](O)[C@H](O)[C@H]4O)[C@H](O)[C@H]3O)[C@H](O)[C@H]2O)c(Cl)c1; experiment: purified protein; format: biochemical, uncultured bacterium; details: 20 mM sodium phosphate pH 6.5, 37°C
purified protein [4] = substrate: O=[N+]([O-])c1ccc(O[C@@H]2O[C@H](CO)[C@@H](O[C@@H]3O[C@H](CO)[C@@H](O[C@@H]4O[C@H](CO)[C@@H](O[C@@H]5O[C@H](CO)[C@@H](O)[C@H](O)[C@H]5O)[C@H](O)[C@H]4O)[C@H](O)[C@H]3O)[C@H](O)[C@H]2O)c(Cl)c1; experiment: purified protein; format: biochemical, uncultured bacterium; details: 20 mM sodium phosphate pH 6.5, 37°C, apparent parameters, text b31 prints µM, table mM (agrees with kcat/Km)
purified protein [5] = substrate: O=[N+]([O-])c1ccc(O[C@@H]2O[C@H](CO)[C@@H](O[C@@H]3O[C@H](CO)[C@@H](O[C@@H]4O[C@H](CO)[C@@H](O[C@@H]5O[C@H](CO)[C@@H](O[C@@H]6O[C@H](CO)[C@@H](O)[C@H](O)[C@H]6O)[C@H](O)[C@H]5O)[C@H](O)[C@H]4O)[C@H](O)[C@H]3O)[C@H](O)[C@H]2O)c(Cl)c1; experiment: purified protein; format: biochemical, uncultured bacterium; details: 20 mM sodium phosphate pH 6.5, 37°C, apparent parameters, printed kcat disagrees with printed kcat/Km (tenfold)
[6] = 36 µM enzyme, methods name the substrate ClPNP β-G1, results ClPNP β-G3
[7] = 22 µM enzyme, methods name the substrate ClPNP β-G1, results ClPNP β-G3
[8] = apparent parameters, text b31 prints µM, table mM (agrees with kcat/Km)

Molecule: OC[C@H]1O[C@@H](O[C@H]2[C@H](O)[C@@H](O)[C@H](O[C@H]3[C@H](O)[C@@H](O)C(O)O[C@@H]3CO)O[C@@H]2CO)[C@H](O)[C@@H](O)[C@@H]1O (stereo partly shown) [G3, cellotriose]
- X-ray crystal structure, 1.73 Å (RBcel1 [1]): each in complex with a differently positioned G3 molecule
- X-ray crystal structure, 1.75 Å (RBcel1 [2]): G3 and G4 were placed in the negative subsites

B1: RBcel1 (uncultured bacterium; E135Q) (protein)
chain: SVDLIGINVAGAEFTGGKLPGKHGTHYFFPPEGYFEYWSEQGIHTVRFPLKWERLQPSLNAELDDVYASLVDDMLDQAKENDIKVILDVHNYARYRKKVIGTEDVPVSAYQDLMERIAKRWQGHDALFAYDIMNQPYGSADKLWPAAAQAGIDGVRKYDKKRPLLIEGASWSSAARWPRYADELLKLKDPADNMVFSAHVYIDEDASGSYKKGPGKDFEPMIGVKRVEPFVNWLKEHGKKGHIGEFGIPNDDERWLDAMDKLLAYLNENCIPINYWAAGPSWGNYKLSIEPKDGEKRPQVALLKKYAAKDNCSDFGPAKAE
notes: 321 residues
- Km (purified protein [3]; [6]): 263 ± 41 µM
- kcat (purified protein [3]; [6]): 0.219 ± 0.009 × 10^-3 min^-1

B2: RBcel1 (uncultured bacterium; Y201F) (protein)
chain: SVDLIGINVAGAEFTGGKLPGKHGTHYFFPPEGYFEYWSEQGIHTVRFPLKWERLQPSLNAELDDVYASLVDDMLDQAKENDIKVILDVHNYARYRKKVIGTEDVPVSAYQDLMERIAKRWQGHDALFAYDIMNEPYGSADKLWPAAAQAGIDGVRKYDKKRPLLIEGASWSSAARWPRYADELLKLKDPADNMVFSAHVFIDEDASGSYKKGPGKDFEPMIGVKRVEPFVNWLKEHGKKGHIGEFGIPNDDERWLDAMDKLLAYLNENCIPINYWAAGPSWGNYKLSIEPKDGEKRPQVALLKKYAAKDNCSDFGPAKAE
notes: 321 residues
- Km (purified protein [3]; [7]): 77 ± 10 µM
- kcat (purified protein [3]; [7]): 0.194 ± 0.023 × 10^-3 min^-1

B3: RBcel1 (uncultured bacterium) (protein)
chain: SVDLIGINVAGAEFTGGKLPGKHGTHYFFPPEGYFEYWSEQGIHTVRFPLKWERLQPSLNAELDDVYASLVDDMLDQAKENDIKVILDVHNYARYRKKVIGTEDVPVSAYQDLMERIAKRWQGHDALFAYDIMNEPYGSADKLWPAAAQAGIDGVRKYDKKRPLLIEGASWSSAARWPRYADELLKLKDPADNMVFSAHVYIDEDASGSYKKGPGKDFEPMIGVKRVEPFVNWLKEHGKKGHIGEFGIPNDDERWLDAMDKLLAYLNENCIPINYWAAGPSWGNYKLSIEPKDGEKRPQVALLKKYAAKDNCSDFGPAKAE
notes: 321 residues
- Km (purified protein [3]; [8]): 2370 ± 260 µM
- kcat (purified protein [3]; [8]): 0.52 ± 0.02 s⁻¹
- kcat/Km (purified protein [3]; [8]): 220 ± 20 M⁻¹ s⁻¹
- Km (purified protein [4]): 300 ± 30 µM
- kcat (purified protein [4]): 0.58 ± 0.01 s⁻¹
- kcat/Km (purified protein [4]): 1880 ± 190 M⁻¹ s⁻¹
- Km (purified protein [5]): 340 ± 50 µM
